Measurements published in publication PMC6957272, “Activation of a nucleotide-dependent RCK domain requires binding of a cation cofactor to a conserved site” (eLife, 2019).

T1: KtrB (B. subtilis, UniProt O32081 1-445)
T1 construct: KtrB, membrane protein of the B. subtilis KtrAB cation channel; The Strep tag held KtrB on Strep-Tactin beads while KtrA was added to assemble the complex; it was cleaved by thrombin before the size-exclusion step; also called wild-type KtrB; source: E. coli BL21(DE3), extracted with DDM, purified (Strep-Tactin Sepharose, size exclusion); not shown: Strep, N-terminal, cleaved
T1 sequence (looked up): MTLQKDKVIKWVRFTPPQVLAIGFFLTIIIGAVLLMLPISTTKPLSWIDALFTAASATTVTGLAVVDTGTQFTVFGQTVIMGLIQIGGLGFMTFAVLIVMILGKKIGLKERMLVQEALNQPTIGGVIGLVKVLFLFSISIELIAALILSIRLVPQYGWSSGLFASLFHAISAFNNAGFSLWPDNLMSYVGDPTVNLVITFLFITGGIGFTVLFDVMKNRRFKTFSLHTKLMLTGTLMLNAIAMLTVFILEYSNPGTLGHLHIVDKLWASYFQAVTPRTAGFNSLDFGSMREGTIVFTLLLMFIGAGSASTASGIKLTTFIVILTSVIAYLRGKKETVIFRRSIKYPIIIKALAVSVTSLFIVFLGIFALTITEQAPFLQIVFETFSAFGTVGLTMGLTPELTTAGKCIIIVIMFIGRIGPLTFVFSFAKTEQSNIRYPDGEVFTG


What was measured:
[1] = target: the molecule itself; assay: crystal structure; KtrA (WT and mutants) with 1 mM ATP or ADP, sitting-drop vapor diffusion at 20°C; WT-ATP with 5 mM CaCl2
KtrB = target: T1, KtrB; assay: SEC; purified KtrA-ATP (or ADP) added to Strep-KtrB on Strep-Tactin beads, 30 min 4°C, washed, eluted with desthiobiotin, tag cleaved by thrombin, then Superdex-S200 in Buffer F (10 mM HEPES, 7 mM NMG pH 8.0, 150 mM KCl, 0.5 mM DDM, 5 mM DTT, 0.2 mM EDTA); settings: both partners purified
[2] = target: the molecule itself; assay: SEC; KtrA alone, bound to ATP or ADP; Superdex-S200, Buffer C (50 mM Tris-HCl pH 7.5, 150 mM KCl, 5 mM DTT, 0.2 mM EDTA)

| Binder | stoichiometry N [1] | binding result (KtrB) | stoichiometry N [2] |
| --- | --- | --- | --- |
| wild-type KtrA (natural protein, B. subtilis, KtrA, RCK domain protein of the B. subtilis KtrAB cation channel; tag-less; Tag-less, cloned in a modified pET-24d vector; eluted from ATP-agarose with ATP or ADP and kept with 1 mM nucleotide; also called KtrAWT; WT; source: E. coli BL21(DE3), purified (anion exchange, ATP-agarose, size exclusion)) MGRIKNKQFAVIGLGRFGGSICKELHRMGHEVLAVDINEEKVNAYASYATHAVIANATEENELLSLGIRNFEYVIVAIGANIQASTLTTLLLKELDIPNIWVKAQNYYHHKVLEKIGADRIIHPEKDMGVKIAQSLSDENVLNYIDLSDEYSIVELLATRKLDSKSIIDLNVRAKYGCTILAIKHHGDICLSPAPEDIIREQDCLVIMGHKKDIKRFENEGM | 8 | binds |  |
| KtrA A80P mutant (natural protein, B. subtilis, KtrA of B. subtilis with A80P; tag-less; source: E. coli BL21(DE3), purified (anion exchange, ATP-agarose, size exclusion)) MGRIKNKQFAVIGLGRFGGSICKELHRMGHEVLAVDINEEKVNAYASYATHAVIANATEENELLSLGIRNFEYVIVAIGPNIQASTLTTLLLKELDIPNIWVKAQNYYHHKVLEKIGADRIIHPEKDMGVKIAQSLSDENVLNYIDLSDEYSIVELLATRKLDSKSIIDLNVRAKYGCTILAIKHHGDICLSPAPEDIIREQDCLVIMGHKKDIKRFENEGM |  | binds | 8 |
| KtrA E125Q mutant (natural protein, B. subtilis, KtrA of B. subtilis with E125Q; tag-less; source: E. coli BL21(DE3), purified (anion exchange, ATP-agarose, size exclusion)) MGRIKNKQFAVIGLGRFGGSICKELHRMGHEVLAVDINEEKVNAYASYATHAVIANATEENELLSLGIRNFEYVIVAIGANIQASTLTTLLLKELDIPNIWVKAQNYYHHKVLEKIGADRIIHPQKDMGVKIAQSLSDENVLNYIDLSDEYSIVELLATRKLDSKSIIDLNVRAKYGCTILAIKHHGDICLSPAPEDIIREQDCLVIMGHKKDIKRFENEGM | 8 | binds |  |
| KtrA R16A mutant (natural protein, B. subtilis, KtrA of B. subtilis with R16A; tag-less; source: E. coli BL21(DE3), purified (anion exchange, ATP-agarose, size exclusion)) MGRIKNKQFAVIGLGAFGGSICKELHRMGHEVLAVDINEEKVNAYASYATHAVIANATEENELLSLGIRNFEYVIVAIGANIQASTLTTLLLKELDIPNIWVKAQNYYHHKVLEKIGADRIIHPEKDMGVKIAQSLSDENVLNYIDLSDEYSIVELLATRKLDSKSIIDLNVRAKYGCTILAIKHHGDICLSPAPEDIIREQDCLVIMGHKKDIKRFENEGM | 8 | binds |  |
| KtrA R16K mutant (natural protein, B. subtilis, KtrA of B. subtilis with R16K; tag-less; source: E. coli BL21(DE3), purified (anion exchange, ATP-agarose, size exclusion)) MGRIKNKQFAVIGLGKFGGSICKELHRMGHEVLAVDINEEKVNAYASYATHAVIANATEENELLSLGIRNFEYVIVAIGANIQASTLTTLLLKELDIPNIWVKAQNYYHHKVLEKIGADRIIHPEKDMGVKIAQSLSDENVLNYIDLSDEYSIVELLATRKLDSKSIIDLNVRAKYGCTILAIKHHGDICLSPAPEDIIREQDCLVIMGHKKDIKRFENEGM | 8 |  |  |
